Measured values reported in paper PMC7913688, “Human Rev1 relies on insert-2 to promote selective binding and accurate replication of stabilized G-quadruplex motifs”.

T1: hRev1 330-833 E466K (human, UniProt Q9UBZ9 330-833, E466K)
T1 sequence: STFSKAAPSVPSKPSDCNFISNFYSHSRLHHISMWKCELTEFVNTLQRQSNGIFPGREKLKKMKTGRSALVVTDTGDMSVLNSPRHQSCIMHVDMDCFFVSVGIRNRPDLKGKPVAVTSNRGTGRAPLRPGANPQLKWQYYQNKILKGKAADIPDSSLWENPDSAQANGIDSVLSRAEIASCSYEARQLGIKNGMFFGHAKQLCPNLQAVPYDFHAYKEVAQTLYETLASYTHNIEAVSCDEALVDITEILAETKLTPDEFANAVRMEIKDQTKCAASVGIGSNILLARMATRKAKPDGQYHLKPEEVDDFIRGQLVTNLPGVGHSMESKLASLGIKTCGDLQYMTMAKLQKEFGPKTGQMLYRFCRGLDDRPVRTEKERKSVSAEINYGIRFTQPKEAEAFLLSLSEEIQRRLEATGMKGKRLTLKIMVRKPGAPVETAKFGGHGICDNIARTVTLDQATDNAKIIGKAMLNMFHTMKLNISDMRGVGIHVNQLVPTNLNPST

T2: hRev1 330-833 Y470A (human, UniProt Q9UBZ9 330-833, Y470A)
T2 sequence: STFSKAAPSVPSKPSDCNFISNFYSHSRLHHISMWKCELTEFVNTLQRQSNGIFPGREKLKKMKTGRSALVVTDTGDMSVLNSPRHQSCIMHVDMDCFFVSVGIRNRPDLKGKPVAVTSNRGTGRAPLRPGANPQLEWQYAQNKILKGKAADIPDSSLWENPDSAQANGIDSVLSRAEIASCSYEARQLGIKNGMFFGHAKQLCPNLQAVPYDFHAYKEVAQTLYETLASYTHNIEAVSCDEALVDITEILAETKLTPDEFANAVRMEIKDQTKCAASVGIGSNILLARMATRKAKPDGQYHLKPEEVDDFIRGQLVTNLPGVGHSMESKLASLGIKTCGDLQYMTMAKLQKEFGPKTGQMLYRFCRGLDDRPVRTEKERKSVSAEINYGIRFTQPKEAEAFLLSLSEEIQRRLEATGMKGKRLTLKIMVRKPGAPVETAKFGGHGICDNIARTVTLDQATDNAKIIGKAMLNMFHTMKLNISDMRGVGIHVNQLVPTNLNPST

T3: hRev1 330-833 E466A (human, UniProt Q9UBZ9 330-833, E466A)
T3 sequence: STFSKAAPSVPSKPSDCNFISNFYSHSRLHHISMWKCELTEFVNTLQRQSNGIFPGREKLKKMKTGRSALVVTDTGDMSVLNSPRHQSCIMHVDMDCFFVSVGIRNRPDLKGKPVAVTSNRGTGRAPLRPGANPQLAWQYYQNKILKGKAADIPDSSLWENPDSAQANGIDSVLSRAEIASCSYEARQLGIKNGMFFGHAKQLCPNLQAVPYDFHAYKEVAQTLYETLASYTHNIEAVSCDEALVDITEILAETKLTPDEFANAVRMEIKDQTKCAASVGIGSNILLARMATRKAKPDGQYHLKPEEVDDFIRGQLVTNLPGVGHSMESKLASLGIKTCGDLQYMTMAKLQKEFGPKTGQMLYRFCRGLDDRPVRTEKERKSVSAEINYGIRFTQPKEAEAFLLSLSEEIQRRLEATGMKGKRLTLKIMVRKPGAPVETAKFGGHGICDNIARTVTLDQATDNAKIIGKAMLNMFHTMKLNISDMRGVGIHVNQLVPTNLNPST

T4: hRev1 330-833 polymerase core (human, UniProt Q9UBZ9 330-833)
T4 sequence: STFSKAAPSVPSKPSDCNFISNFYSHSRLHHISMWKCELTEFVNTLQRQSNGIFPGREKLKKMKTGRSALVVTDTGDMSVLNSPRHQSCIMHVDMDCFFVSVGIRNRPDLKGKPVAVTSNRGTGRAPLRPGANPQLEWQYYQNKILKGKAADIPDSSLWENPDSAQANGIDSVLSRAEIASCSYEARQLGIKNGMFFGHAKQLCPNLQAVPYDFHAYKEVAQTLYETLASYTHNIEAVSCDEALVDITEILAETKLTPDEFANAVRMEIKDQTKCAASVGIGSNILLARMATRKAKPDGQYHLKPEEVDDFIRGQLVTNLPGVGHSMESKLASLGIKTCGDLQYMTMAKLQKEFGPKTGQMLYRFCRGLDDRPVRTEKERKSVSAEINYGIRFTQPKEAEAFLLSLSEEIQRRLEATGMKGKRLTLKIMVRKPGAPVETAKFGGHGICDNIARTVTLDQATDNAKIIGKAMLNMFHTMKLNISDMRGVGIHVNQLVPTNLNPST


Tests used:
[1] = molecular target: T1, hRev1 330-833 E466K; experiment: fluorescence polarization; 100 mM KCl?; Fluorescence polarization: 1 nM FAM-DNA, 100 mM KCl or LiCl; DNA annealed in 50 mM HEPES pH 7.5; full buffer as in cited ref 17, temperature not stated. Footprinting: 50 mM HEPES pH 7.5, 100 mM KCl, 10 uM protein, 30 uM ssDNA, room temperature; conditions: protein: recombinant, label: 5'-FAM
[2] = molecular target: T2, hRev1 330-833 Y470A; experiment: as above; conditions: protein: recombinant, label: 5'-FAM
[3] = molecular target: T3, hRev1 330-833 E466A; experiment: as above; conditions: protein: recombinant, label: 5'-FAM
[4] = molecular target: T4, hRev1 330-833 polymerase core; experiment: fluorescence polarization; 100 mM LiCl; Fluorescence polarization: 1 nM FAM-DNA, 100 mM KCl or LiCl; DNA annealed in 50 mM HEPES pH 7.5; full buffer as in cited ref 17, temperature not stated. Footprinting: 50 mM HEPES pH 7.5, 100 mM KCl, 10 uM protein, 30 uM ssDNA, room temperature; conditions: protein: recombinant; label: 5'-FAM
[5] = parallel G4 (1:2:1 loops) in K+

Binder	Kd [1, 5]	Kd [2, 5]	Kd [3, 5]	Kd [1]	Kd [2]	Kd [3]	Kd [4]
AGGGTGGGTAGGGTGGGTTATGAGATGAT (structured_DNA) [Myc 14/23 ss G4]	43 ± 16 nM	180 ± 30 nM	280 ± 20 nM				
AGCGTGCGTAGCGTGCGTTATGAGATGAT (ssDNA) [Non-G4 Myc control ss]				1300 ± 300 nM	740 ± 180 nM	1100 ± 130 nM	760 ± 290 nM
